Measured values reported in article PMC5674894.
Like-named read-outs stand apart in the source and are kept apart here.

Assays:
Assay in all cases: FRET or BRET
[1] = molecular target: RNC_(RodZ): ribosome-nascent chain complex displaying the N-terminal 180 amino acids of RodZ (UniProt P27434)
[2] = molecular target: RNC_(RodZ) bearing the mutant TMD with two arginines introduced (UniProt P27434)
[3] = molecular target: RNC_(RodZ160): ribosome-nascent chain complex with a RodZ nascent chain of 160 amino acids (UniProt P27434)
[4] = molecular target: RNC_(RodZ): ribosome-nascent chain complex displaying the N-terminal 180 amino acids of RodZ (UniProt P27434); remark: listed apart in the source
[5] = molecular target: RNC_(RodZ): ribosome-nascent chain complex displaying the N-terminal 180 amino acids of RodZ (UniProt P27434); remark: listed apart in the source

Kd [1]: 1 nM | reduction in Cm donor fluorescence (FRET) [1]: 44% | Kd [2]: 25.9 nM | Kd [3]: 0.94 nM | Kd [4]: 19 nM | Kd [5]: 55 nM
Substance: SecA(C98S/S12C) labeled at residue 12 with BODIPY-FL (from UniProt P10408 1-901) (enzyme)
